Data as given in paper PMC5929992 (Science signaling, 2016).
Positions count from the first letter of the chain named. Names and notes keep the numbering of the source. Non-standard residues stand in square brackets, D forms with d. No end group written: not given here. pY = N[C@@H](Cc1ccc(OP(=O)(O)O)cc1)C(=O)O

B1: CD28WT cytoplasmic domain (CD28CD), disulfide-linked dimer (domain or fragment, mouse)
chain: CNSRRNRLLQSDYMNMTPRRPGLTRKPYQPYAPARDFAAYRP
modifications: disulfide between the added N-terminal cysteines of the two chains (oxidized with 1 mM GSSG)
B2: CD28 Mut5 cytoplasmic domain, disulfide-linked dimer (domain or fragment, mouse)
chain: B1 chain with P30A, P33A
modifications: disulfide between the added N-terminal cysteines of the two chains (oxidized with 1 mM GSSG)

Assays:
Assay in all cases: SPR
[1] = target: Biotinylated CD28CD 25-mer peptide (residues 194 to 218) phosphorylated at Tyr207 (mouse)
[2] = target: Murine full-length Lck (amino acid residues 6 to 509) (mouse, UniProt P06240 6-509, phosphotyrosine at 505)
[3] = target: Lck SH2 domain (residues 122 to 226) (mouse, UniProt P06240 122-226)
Lck SH2 domain (residues 122 to 226), sequence (P06240 122-226): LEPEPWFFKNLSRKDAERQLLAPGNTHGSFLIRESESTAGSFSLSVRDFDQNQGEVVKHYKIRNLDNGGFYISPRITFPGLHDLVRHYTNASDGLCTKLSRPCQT

Murine full-length Lck (amino acid residues 6 to 509), sequence (P06240 6-509): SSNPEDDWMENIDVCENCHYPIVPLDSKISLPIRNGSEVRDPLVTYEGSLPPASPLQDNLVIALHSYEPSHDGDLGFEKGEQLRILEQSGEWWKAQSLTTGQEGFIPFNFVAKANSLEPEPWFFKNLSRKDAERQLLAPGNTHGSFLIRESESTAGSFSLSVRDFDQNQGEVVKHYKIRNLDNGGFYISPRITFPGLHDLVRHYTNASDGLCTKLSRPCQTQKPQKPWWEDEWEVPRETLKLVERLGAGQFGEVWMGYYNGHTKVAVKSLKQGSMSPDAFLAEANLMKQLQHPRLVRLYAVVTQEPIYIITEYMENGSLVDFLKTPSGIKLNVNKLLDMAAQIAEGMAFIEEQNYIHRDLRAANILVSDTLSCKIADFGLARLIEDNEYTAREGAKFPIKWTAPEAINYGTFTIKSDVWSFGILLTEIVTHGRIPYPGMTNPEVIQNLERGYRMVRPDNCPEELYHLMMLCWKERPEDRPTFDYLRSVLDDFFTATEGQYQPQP

Row | Molecule | Kd [2] | also measured
1 | Lck SH2 domain (residues 122 to 226) (from UniProt P06240 122-226) (domain or fragment) | – | Kd [1]: 10 µM
2 | B1 | 199 nM | –
3 | B2 | 187 nM | –
4 | PRRPGLTRKPYQA[pY]AAARDFAAYRP (peptide, UniProt P31041 194-218, looked up, also: biotinylated, position not given here) [Biotinylated CD28CD 25-mer peptide phosphorylated at Tyr207, double mutant P206A/P209A] | – | Kd [3]: 63.7 µM
